# Measurements: paper PMC6212828
# Tests used:
# Fur (Bacillus subtilis) [1] = biological target: T1, Fur (Bacillus subtilis) (UniProt P54574); experiment: EMSA; details: EMSA with 1 mM MnCl2; ~1 fmol 32P-labelled probe (B, C) or ~180 ng DNA with ethidium bromide stain, 5% native PAGE (A); remaining buffer, pH and temperature …
# T1 sequence: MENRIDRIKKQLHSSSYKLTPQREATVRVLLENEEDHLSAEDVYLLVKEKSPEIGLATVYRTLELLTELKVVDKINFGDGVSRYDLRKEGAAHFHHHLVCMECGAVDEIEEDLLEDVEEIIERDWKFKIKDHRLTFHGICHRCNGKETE
# Fur (Bacillus subtilis) [2] = experiment: EMSA; details: EMSA with 1 mM MnCl2; ~1 fmol 32P-labelled probe (B, C) or ~180 ng DNA with ethidium bromide stain, 5% native PAGE (A); remaining buffer, pH and temperature …
substance,measurement,setting,value
TAGACCTTTGTCCTGCACAGAGGTCTTTTTTTGTTACAGTTTTATAGTACTTTTATTTCATTTTCGTAAAATGTAACAAAATTACTTGACGTAAACAAGTTATGTATATATACTAGCTTACATTAAGTAAGTGATAACATTTATCAAGGAGGATAAAATGAATAAATCATTTGAAATTGGCACATTACTTTTAAGAG (double strand) [catD promoter probe (-121 to +76)],Kd,Fur (Bacillus subtilis) [1],700 nM
catD ORF 218-bp HindIII fragment (+169 to +386),binding,Fur (Bacillus subtilis) [2],> 3 µM
catD ORF probe (+137 to +278),binding,Fur (Bacillus subtilis) [2],> 2 µM
catD promoter 323-bp HindIII fragment (-155 to +168),K half,Fur (Bacillus subtilis) [2],500 nM
catD promoter probe (-121 to +76),Kd,Fur (Bacillus subtilis) [2],700 nM
